pKd data for four molecules are collected here from publication PMC9482650, “Quantitative fragmentomics allow affinity mapping of interactomes” (Nature Communications, 2022).

Targets include DLG2_1, Q15700; MAGIX, Q9H6Y5; MAGI3_5, Q5TCQ9; GRIP2_2, Q9C0E4; MAGI3_3, Q5TCQ9; MAGI1_5, Q96QZ7; MAST3, O60307; Inadl_7, Q8NI35; PARD3_1, Q8TEW0.
Test in all cases: holdup assay
Holding throughout (parameters): key: below the threshold = too weak to quantify, mostly under pKd 3.1 to 4

Another experiment concerns the target T1, SHROOM4, Q9ULL8.
T1 sequence (Q9ULL8 5-102, limits assumed, looked up): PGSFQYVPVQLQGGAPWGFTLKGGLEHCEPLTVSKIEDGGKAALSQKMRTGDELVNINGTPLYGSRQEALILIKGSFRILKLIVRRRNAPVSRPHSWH

The next experiment has as its target T2, PDZD11, Q5EBL8.
T2 sequence (Q5EBL8 42-139, limits assumed, looked up): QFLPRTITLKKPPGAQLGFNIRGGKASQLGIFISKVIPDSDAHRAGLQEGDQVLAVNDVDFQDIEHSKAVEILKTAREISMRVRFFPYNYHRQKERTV

The target of another experiment is T3, MAGI2_1, Q86UL8.
T3 sequence (Q86UL8 12-111, limits assumed, looked up): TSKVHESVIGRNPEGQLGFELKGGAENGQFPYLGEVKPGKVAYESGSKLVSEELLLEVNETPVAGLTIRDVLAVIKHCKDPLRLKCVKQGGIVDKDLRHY

In a further experiment the target is T4, PDZD2_6, O15018.
T4 sequence (O15018 2745-2839, limits assumed, looked up): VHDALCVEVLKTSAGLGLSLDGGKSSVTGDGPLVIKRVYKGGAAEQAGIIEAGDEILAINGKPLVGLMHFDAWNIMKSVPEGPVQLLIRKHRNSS

Another experiment has as its target T5, PARD6B, Q9BYG5.
T5 sequence (Q9BYG5 152-260, limits assumed, looked up): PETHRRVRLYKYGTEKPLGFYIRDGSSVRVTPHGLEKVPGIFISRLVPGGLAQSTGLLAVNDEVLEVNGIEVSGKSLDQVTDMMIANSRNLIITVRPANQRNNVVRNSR

The next experiment addresses T6, MLLT4, P55196.
T6 sequence (P55196 1002-1103, limits assumed, looked up): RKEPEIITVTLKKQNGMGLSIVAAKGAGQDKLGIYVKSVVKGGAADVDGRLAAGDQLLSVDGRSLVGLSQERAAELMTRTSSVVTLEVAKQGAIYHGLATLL

The target of another experiment is T7, SHROOM2, Q13796.
T7 sequence (Q13796 21-118, limits assumed, looked up): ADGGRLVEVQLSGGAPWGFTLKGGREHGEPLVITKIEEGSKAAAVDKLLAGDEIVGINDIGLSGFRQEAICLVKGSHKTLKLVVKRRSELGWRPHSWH

The next experiment has as its target T8, PREX2_2, Q70Z35.
T8 sequence (Q70Z35 672-764, limits assumed, looked up): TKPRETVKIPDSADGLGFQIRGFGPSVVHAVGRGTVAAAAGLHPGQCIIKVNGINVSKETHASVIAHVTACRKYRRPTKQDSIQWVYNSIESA

The next experiment has as its target T9, GRIP1_1, Q9Y3R0.
T9 sequence (Q9Y3R0 48-146, limits assumed, looked up): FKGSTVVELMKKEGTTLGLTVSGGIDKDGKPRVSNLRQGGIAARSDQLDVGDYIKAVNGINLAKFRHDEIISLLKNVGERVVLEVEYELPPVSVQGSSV

A further experiment deals with T10, PDZRN3_2, Q9UPQ7.
T10 sequence (Q9UPQ7 414-513, limits assumed, looked up): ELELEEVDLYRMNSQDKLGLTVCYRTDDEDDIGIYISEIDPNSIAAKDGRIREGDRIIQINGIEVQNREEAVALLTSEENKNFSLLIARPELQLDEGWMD

The next experiment deals with T11, PTPN4, P29074.
T11 sequence (P29074 512-599, limits assumed, looked up): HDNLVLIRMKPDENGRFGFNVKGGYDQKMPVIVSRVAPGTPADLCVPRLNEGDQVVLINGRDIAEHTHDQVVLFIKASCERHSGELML

The next experiment has as its target T12, TJP3_1, O95049.
T12 sequence (O95049 6-103, limits assumed, looked up): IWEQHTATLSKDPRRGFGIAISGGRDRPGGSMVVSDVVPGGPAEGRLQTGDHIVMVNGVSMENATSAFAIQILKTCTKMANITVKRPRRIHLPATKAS

For the next experiment, the target named is T13, USH1C_3, Q9Y6N9.
T13 sequence (Q9Y6N9 447-547, limits assumed, looked up): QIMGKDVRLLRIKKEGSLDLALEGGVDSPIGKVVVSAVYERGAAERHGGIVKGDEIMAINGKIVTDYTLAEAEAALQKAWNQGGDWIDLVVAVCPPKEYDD

The target of the next experiment is T14, MPDZ_2, O75970.
T14 sequence (O75970 252-347, limits assumed, looked up): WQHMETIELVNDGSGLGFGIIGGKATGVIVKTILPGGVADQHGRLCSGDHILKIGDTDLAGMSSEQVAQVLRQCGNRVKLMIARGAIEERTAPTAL

Setting [1] is: plain residues with an end cap or a label only (N-terminal biotin on a linker: none).
[2] abbreviates: plain residues with an end cap or a label only (N-terminal biotin on a linker: ttds).

Chain of GRIP2_2, Q9C0E4 (Q9C0E4 137-245): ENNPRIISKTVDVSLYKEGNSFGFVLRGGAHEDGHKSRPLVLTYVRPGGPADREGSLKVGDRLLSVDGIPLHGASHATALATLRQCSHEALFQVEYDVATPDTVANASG
Chain of PARD3_1, Q8TEW0 (Q8TEW0 264-372): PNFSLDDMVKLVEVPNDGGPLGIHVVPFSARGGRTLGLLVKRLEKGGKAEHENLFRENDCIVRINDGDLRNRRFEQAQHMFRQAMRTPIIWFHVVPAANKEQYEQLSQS
Chain of Inadl_7, Q8NI35 (Q8NI35 1219-1332): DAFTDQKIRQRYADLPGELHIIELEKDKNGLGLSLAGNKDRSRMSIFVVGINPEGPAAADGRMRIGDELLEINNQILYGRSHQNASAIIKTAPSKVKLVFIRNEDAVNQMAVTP
Chain of MAGI1_5, Q96QZ7 (Q96QZ7 986-1098): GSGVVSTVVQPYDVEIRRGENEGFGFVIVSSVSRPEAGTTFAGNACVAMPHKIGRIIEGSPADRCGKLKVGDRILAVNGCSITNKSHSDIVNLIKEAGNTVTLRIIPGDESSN
Chain of MAGI3_3, Q5TCQ9 (Q5TCQ9 572-655): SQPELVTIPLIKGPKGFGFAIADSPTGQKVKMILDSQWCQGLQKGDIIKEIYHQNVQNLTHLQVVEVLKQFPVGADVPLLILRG
Chain of MAGI3_5, Q5TCQ9 (Q5TCQ9 847-941): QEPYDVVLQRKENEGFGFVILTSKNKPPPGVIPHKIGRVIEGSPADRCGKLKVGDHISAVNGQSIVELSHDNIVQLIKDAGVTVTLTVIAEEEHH
Chain of MAGIX, Q9H6Y5 (Q9H6Y5 118-211): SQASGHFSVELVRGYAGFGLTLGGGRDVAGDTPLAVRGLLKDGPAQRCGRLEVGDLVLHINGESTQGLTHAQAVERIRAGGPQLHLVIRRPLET
Chain of MAST3, O60307 (O60307 945-1048): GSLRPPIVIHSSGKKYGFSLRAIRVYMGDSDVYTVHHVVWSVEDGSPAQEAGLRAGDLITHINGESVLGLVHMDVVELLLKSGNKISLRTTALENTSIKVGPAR

As usually defined, the pKd is the Kd on a negative log10 scale, so that one unit is a factor of ten. With DSKPPLPPDEWV [MERS-E, K9N5R3], the pKd result with SHROOM4, Q9ULL8 (setting [1]) is “below the threshold”; with DLG2_1, Q15700 (setting [1]) it was “below the threshold”; in the experiment with PDZD11, Q5EBL8 (setting [1]), “below the threshold”; in the experiment with MAGI2_1, Q86UL8 (setting [1]) it was “below the threshold”; with MAGIX, Q9H6Y5 (setting [1]) it was “below the threshold”; with MAGI3_5, Q5TCQ9 (setting [1]), “below the threshold”. For the same molecule, the pKd entry in the experiment with PDZD2_6, O15018 (setting [1]) is “below the threshold”; with PARD6B, Q9BYG5 (setting [1]), “below the threshold”; in the experiment with MLLT4, P55196 (setting [1]) it was “below the threshold”; in the experiment with SHROOM2, Q13796 (setting [1]) it was “below the threshold”; in the experiment with PREX2_2, Q70Z35 (setting [1]) it was “below the threshold”; in the experiment with GRIP1_1, Q9Y3R0 (setting [1]) it was “below the threshold”. For the same molecule, the pKd entry in the experiment with PDZRN3_2, Q9UPQ7 (setting [1]) is “below the threshold”; with PTPN4, P29074 (setting [1]) it was “below the threshold”; with TJP3_1, O95049 (setting [1]), 4.19; with GRIP2_2, Q9C0E4 (setting [1]), “below the threshold”; with MAGI3_3, Q5TCQ9 (setting [1]), “below the threshold”; in the experiment with MAGI1_5, Q96QZ7 (setting [1]), “below the threshold”. Further, the pKd result with MAST3, O60307 (setting [1]) is given as “below the threshold”; with Inadl_7, Q8NI35 (setting [1]), “below the threshold”; with PARD3_1, Q8TEW0 (setting [1]) it was “below the threshold”; with USH1C_3, Q9Y6N9 (setting [1]), “below the threshold”; in the experiment with MPDZ_2, O75970 (setting [1]) it was “below the threshold”.
For the molecule MERLRVETDV [ARHGEF16, Q5VV41], the pKd with SHROOM4, Q9ULL8 (setting [2]) is 4.06; with DLG2_1, Q15700 (setting [2]), 4.1; with PDZD11, Q5EBL8 (setting [2]) it was “below the threshold”; in the experiment with MAGI2_1, Q86UL8 (setting [2]), “below the threshold”; with MAGIX, Q9H6Y5 (setting [2]), “below the threshold”; in the experiment with MAGI3_5, Q5TCQ9 (setting [2]), “below the threshold”. Moreover, the pKd result with PDZD2_6, O15018 (setting [2]) was “below the threshold”; with PARD6B, Q9BYG5 (setting [2]) it was “below the threshold”; with MLLT4, P55196 (setting [2]), “below the threshold”; with SHROOM2, Q13796 (setting [2]), “below the threshold”; in the experiment with PREX2_2, Q70Z35 (setting [2]), 4.17; in the experiment with GRIP1_1, Q9Y3R0 (setting [2]) it was “below the threshold”. Besides, the pKd result with PDZRN3_2, Q9UPQ7 (setting [2]) is “below the threshold”; with PTPN4, P29074 (setting [2]) it was 4.25; with TJP3_1, O95049 (setting [2]) it was “below the threshold”; with GRIP2_2, Q9C0E4 (setting [2]) it was “below the threshold”; with MAGI3_3, Q5TCQ9 (setting [2]), “below the threshold”; with MAGI1_5, Q96QZ7 (setting [2]) it was “below the threshold”. Further, the pKd entry is recorded as “below the threshold” with MAST3, O60307 (setting [2]); “below the threshold” with Inadl_7, Q8NI35 (setting [2]); “below the threshold” with PARD3_1, Q8TEW0 (setting [2]); “below the threshold” in the experiment with USH1C_3, Q9Y6N9 (setting [2]); “below the threshold” with MPDZ_2, O75970 (setting [2]).
In the case of IQREDQETAV [DGKZ, Q13574], the pKd in the experiment with SHROOM4, Q9ULL8 (setting [2]) is 4.76; with DLG2_1, Q15700 (setting [2]), 4.71; with PDZD11, Q5EBL8 (setting [2]) it was “below the threshold”; with MAGI2_1, Q86UL8 (setting [2]) it was “below the threshold”; with MAGIX, Q9H6Y5 (setting [2]), “below the threshold”; with MAGI3_5, Q5TCQ9 (setting [2]), 4.51. Besides, the pKd result with PDZD2_6, O15018 (setting [2]) is listed as “below the threshold”; in the experiment with PARD6B, Q9BYG5 (setting [2]) it was “below the threshold”; with MLLT4, P55196 (setting [2]), “below the threshold”; in the experiment with SHROOM2, Q13796 (setting [2]), “below the threshold”; with PREX2_2, Q70Z35 (setting [2]), “below the threshold”; in the experiment with GRIP1_1, Q9Y3R0 (setting [2]) it was “below the threshold”. The pKd entry with PDZRN3_2, Q9UPQ7 (setting [2]) is “below the threshold”; with PTPN4, P29074 (setting [2]), 4.8; with TJP3_1, O95049 (setting [2]), “below the threshold”; with GRIP2_2, Q9C0E4 (setting [2]), “below the threshold”; with MAGI3_3, Q5TCQ9 (setting [2]), “below the threshold”; with MAGI1_5, Q96QZ7 (setting [2]) it was 5.06. In addition, the pKd entry is given as “below the threshold” in the experiment with MAST3, O60307 (setting [2]); “below the threshold” with Inadl_7, Q8NI35 (setting [2]); “below the threshold” in the experiment with PARD3_1, Q8TEW0 (setting [2]); “below the threshold” with USH1C_3, Q9Y6N9 (setting [2]); “below the threshold” with MPDZ_2, O75970 (setting [2]).
Turning to DPLTPSRSQL [DGKK, Q5KSL6], the pKd result in the experiment with SHROOM4, Q9ULL8 (setting [2]) was “below the threshold”; with DLG2_1, Q15700 (setting [2]) it was “below the threshold”; with PDZD11, Q5EBL8 (setting [2]), “below the threshold”; with MAGI2_1, Q86UL8 (setting [2]), “below the threshold”; with MAGIX, Q9H6Y5 (setting [2]), “below the threshold”; with MAGI3_5, Q5TCQ9 (setting [2]), “below the threshold”. The pKd entry was “below the threshold” in the experiment with PDZD2_6, O15018 (setting [2]); “below the threshold” in the experiment with PARD6B, Q9BYG5 (setting [2]); “below the threshold” with MLLT4, P55196 (setting [2]); “below the threshold” with SHROOM2, Q13796 (setting [2]); “below the threshold” with PREX2_2, Q70Z35 (setting [2]); “below the threshold” with GRIP1_1, Q9Y3R0 (setting [2]). Besides, the pKd was 4.11 with PDZRN3_2, Q9UPQ7 (setting [2]); “below the threshold” with PTPN4, P29074 (setting [2]); “below the threshold” in the experiment with TJP3_1, O95049 (setting [2]); “below the threshold” in the experiment with GRIP2_2, Q9C0E4 (setting [2]); “below the threshold” with MAGI3_3, Q5TCQ9 (setting [2]); “below the threshold” with MAGI1_5, Q96QZ7 (setting [2]). The pKd entry with MAST3, O60307 (setting [2]) is “below the threshold”; with Inadl_7, Q8NI35 (setting [2]), “below the threshold”; in the experiment with PARD3_1, Q8TEW0 (setting [2]), “below the threshold”; in the experiment with USH1C_3, Q9Y6N9 (setting [2]), “below the threshold”; in the experiment with MPDZ_2, O75970 (setting [2]), “below the threshold”.
